Measured values as given in patent US20240343810A1 (published 2024).
Each block holds one binder with its values, some of them ahead of it.

Legend:
[1] = target: T1, mouse ICOS-mFc (Chimerigen) (mouse, UniProt Q9WVS0 21-141, limits assumed); assay: DELFIA ELISA on coated mouse ICOS-mFc, mean
T1 construct: Bought; also called recombinant mouse ICOS protein; mICOS; not shown: mouse Fc of the bought fusion
T1 sequence: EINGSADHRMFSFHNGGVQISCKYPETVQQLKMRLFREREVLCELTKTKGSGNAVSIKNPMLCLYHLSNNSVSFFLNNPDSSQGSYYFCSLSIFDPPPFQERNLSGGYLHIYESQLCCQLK
Method: (§1) Recombinant ICOS proteins, human ICOS-mFc or mouse ICOS-mFc (Chimerigen) were diluted in 1×PBS and added to Black Hi-bind plates (Griener) at 1 μg/ml, 50 μl/well. Recombinant PD-L1 proteins, human PD-L1-Flag-His or mouse-His were diluted in 1×PBS and added to Black Hi-bind plates (Griener) at 4 μg/ml, 50 μl/well. The plates were left overnight at 4° C. The next day plates were washed 3× with 300 μl/well of 1×PBS+0.1% Tween and blocked with 200 ul/well of 1×PBS+1% BSA blocking buffer for 1 hr at RT on a plate shaker. Plates were washed 3× with 300 μl/well of 1×PBS+0.1% Tween.
(§2) However, human-PD-L1 mAb² antibodies were diluted in 1×PBS+0.1% BSA buffer and diluted 1 in 2 from a starting working concentration of 0.066 μM over an 11 point titration. Titrated antibodies were added to the plates, 50 μl/well and left to incubate for 1 hr at R.T on a plate shaker. Plates were washed 3× with 300 μl/well of 1×PBS+0.1% Tween.
(§3) DELFIA® Eu-labelled Anti-human IgG (Perkin-Elmer) was diluted 1:500 in DELFIA Assay buffer (Perkin-Elmer) and added to the assay plate (50 μl/well), left to incubate for 1 hr at RT on a plate shaker. […] After incubation, assay was read on Envision plate reader (Perkin Elmer), Time-resolved fluorescence (TRF) was measured at 615 nm.

[2] = target: T2, human ICOS expressed on cells (human, UniProt Q9Y6W8 21-199); assay: Flow cytometry on CHO-S human ICOS cells, anti-human IgG AF647, mean
T2 construct: also called CHO-S cells transfected with human ICOS; hICOS
T2 sequence: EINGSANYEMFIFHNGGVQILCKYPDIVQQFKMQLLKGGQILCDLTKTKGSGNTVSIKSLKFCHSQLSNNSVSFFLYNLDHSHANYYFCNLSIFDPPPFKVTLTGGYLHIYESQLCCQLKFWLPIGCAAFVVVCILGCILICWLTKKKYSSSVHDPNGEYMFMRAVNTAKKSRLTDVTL
Method: (§4) CHO—S cells transfected with either human ICOS or mouse ICOS were resuspended in FACS buffer (PBS+1% w/v BSA+0.1% w/v sodium azide) and transferred to a 96-well V-bottom plate (Greiner) at a density of 1×10⁵ cells per well. mAb and mAb² were titrated in FACS buffer, 1 in 3 dilution across 11 points from a starting working concentration of 400 nM. Plates were centrifuged at 300×g for 3 minutes, supernatant discarded and 50 μL mAb or mAb² solution were added to cells and incubated at 4° C. for 1 hour. Cells were washed with 150 μL of PBS and centrifuged at 300×g for 3 minutes, supernatant was discarded and cell pellet resuspended in 150 μL PBS added. This wash step was repeated twice. Bound mAb or mAb² was detected by addition of 50 μL of anti-human 647 (Jackson ImmunoResearch) diluted to 3 ug/ml in FACS buffer. Cells were incubated for 1 hour at 4° C. in the dark. Cells were washed with 150 μL of PBS and centrifuged at 300 g for 3 minutes, supernatant was discarded and cell pellet resuspended in 150 μL PBS added. This wash step was repeated twice. Cells were fixed with 25 μL 4% v/v paraformaldehyde, incubated for 20 minutes at 4° C., cells were pelleted by centrifugation at 300×g and the supernatant discarded. […] AlexaFluor 647 signal intensity (geometric mean) was measured by flow cytometry using a Beckman Coulter CytoFLEX instrument.

[3] = target: T3, mouse ICOS expressed on CHO cells (mouse, UniProt Q9WVS0 21-200); assay: Flow cytometry on CHO-S mouse ICOS cells, anti-human IgG AF647, N=3
T3 construct: also called CHO-S cells transfected with mouse ICOS; mICOS
T3 sequence (looked up): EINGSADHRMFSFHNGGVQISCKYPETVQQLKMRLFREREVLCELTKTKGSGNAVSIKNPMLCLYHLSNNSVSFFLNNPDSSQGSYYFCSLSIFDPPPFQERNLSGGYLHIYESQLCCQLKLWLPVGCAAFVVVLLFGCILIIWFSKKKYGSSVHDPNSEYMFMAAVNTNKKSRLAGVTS
Method: as §4

[4] = target: T4, Biotinylated human ICOS protein (human, UniProt Q9Y6W8 21-140, limits assumed, biotinylated (sites not given)); assay: SPR ProteOn avidity format, biotinylated human ICOS on NLC chip, antibody analyte, 25 C
T4 construct: Captured on the NLC chip in the avidity SPR
T4 sequence: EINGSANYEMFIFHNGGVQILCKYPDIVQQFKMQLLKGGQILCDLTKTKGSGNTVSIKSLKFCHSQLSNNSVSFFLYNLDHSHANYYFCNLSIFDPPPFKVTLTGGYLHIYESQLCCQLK
Method: Biotinylated human ICOS protein diluted at 7.5 μg/mL in running buffer (1× HBS-EP+ Buffer Technova, cat. No. H8022) was captured on a NLC sensor chip (Bio-Rad, cat No 1765021). The surface was then blocked using biocytin (Sigma Aldrich, cat No B1758) at 1 mg/mL.
The assay was carried out at 25° C.
The buffer injection (i.e. 0 nM) was used to double reference the sensorgrams. The analysis was carried out using the equilibrium model inherent to the ProteOn's analysis software for each mAb² construct.

[5] = target: T5, human ICOS-mFc (Chimerigen) (human, UniProt Q9Y6W8 21-140); assay: DELFIA ELISA on coated human ICOS-mFc, N=3
T5 construct: Bought; also called recombinant human ICOS protein; hICOS; not shown: mouse Fc of the bought fusion
T5 sequence: T4 sequence
Method: as §1, §2, §3

[6] = target: T3, mouse ICOS expressed on CHO cells; assay: Flow cytometry on CHO-S mouse ICOS cells, anti-human IgG AF647, N=2
Method: as §4

[7] = target: T5, human ICOS-mFc (Chimerigen); assay: DELFIA ELISA on coated human ICOS-mFc, N=2
Method: as §1, §2, §3

EC50 [1]: 11.4 nM
EC50 [2]: 21.2 nM
EC50 [3]: 20.1 nM
koff [4]: 0.000456 s⁻¹
EC50 [5]: 41.3 nM
EC50 [6]: 5.06 nM
EC50 [7]: 25.5 nM
B1: STIM001 (antibody, human IgG1, kappa)
heavy: not shown
light: DIVMTQSPLSLPVTPGEPASISCRSSQSLLHSNEYNYLDWYLQKPGQSPQLLIFLGSNRASGVPDRFSGSGSGTDFTLKITRVEAEDVGIYYCMQSLQTPLTFGGGTKVEIKRTVAAPSVFIFPPSDEQLKSGTASVVCLLNNFYPREAKVQWKVDNALQSGNSQESVTEQDSKDSTYSLSSTLTLSKADYEKHKVYACEVTHQGLSSPVTKSFNRGEC
notes: Anti-ICOS monospecific antibody, tested as human IgG1; also called STIM001 monoclonal IgG1 antibody

EC50 [1]: 0.38 nM
EC50 [2]: 5.53 nM
EC50 [3]: 7.28 nM
koff [4]: 0.000449 s⁻¹
EC50 [5]: 0.727 nM
EC50 [6]: 2.19 nM
EC50 [7]: 1.04 nM
B2: STIM003 (antibody, human IgG1, kappa)
heavy: not shown
light: EIVLTQSPGTLSLSPGERATLSCRASQSVSRSYLAWYQQKRGQAPRLLIYGASSRATGIPDRFSGDGSGTDFTLSISRLEPEDFAVYYCHQYDMSPFTFGPGTKVDIKRTVAAPSVFIFPPSDEQLKSGTASVVCLLNNFYPREAKVQWKVDNALQSGNSQESVTEQDSKDSTYSLSSTLTLSKADYEKHKVYACEVTHQGLSSPVTKSFNRGEC
notes: Anti-ICOS monospecific antibody, tested as human IgG1; also called STIM003 monoclonal IgG1 antibody
